The text below walks through data of patent publication US20140154817A1 (WALTER AND ELIZA HALL INSTITUTE OF MEDICAL RESEARCH, published 2014).

Bridge positions count the residues as written; N and C are the ends. Ends that are not written are not given here. * marks the point of attachment. Biotin = O=C1N[C@H]2[C@H](CS[C@H]2CCCCC(=O)*)N1 Bounds are passed on as bounds.

To fix the notation:
B2: IR485 construct of human insulin receptor (receptor)
chain: HLYPGEVCPGMDIRNNLTRLHELENCSVIEGHLQILLMFKTRPEDFRDLSFPKLIMITDYLLLFRVYGLESLKDLFPNLTVIRGSRLFFNYALVIFEMVHLKELGLYNLMNITRGSVRIEKNNELCYLATIDWSRILDSVEDNHIVLNKDDNEECGDICPGTAKGKTNCPATVINGQFVERCWTHSHCQKVCPTICKSHGCTAEGLCCHSECLGNCSQPDDPTKCVACRNFYLDGRCVETCPPPYYHFQDWRCVNFSFCQDLHHKCKNSRRQGCHQYVIHNNKCIPECPSGYTMNSSNLLCTPCLGPCPKVCHLLEGEKTIDSVTSAQELRGCTVINGSLIINIRGGNNLAAELEANLGLIEEISGYLKIRRSYALVSLSFFRKLRLIRGETLEIGNYSFYALDNQNLRQLWDWSKHNLTTTQGKLFFHYNPKLCLSEIHKMEEVSGTKGRQERNDIALKTNGDKASCENELLKFSYIRTSFDKISDDDDKEQKLISEEDLN
notes: The tag was not removed for ITC; Expressed in Lec8 mutant CHO cells; also called insulin mini-receptor IR485; first three domains of IR (L1-CR-L2)

Test [1] has as its target T1, Zinc-free porcine insulin (porcine, UniProt P01315 88-108; P01315 25-54).
T1 construct: mature; Made zinc-free by dialysis against 0.1% acetic acid and lyophilisation; also called ZFP-insulin
As to the kind of experiment: ITC, 25 °C, hormone titrated into IR485 pre-mixed with 10-fold IGF-1R αCT peptide. The protocol:
(§1) ITC experiments were performed using a VP-ITC isothermal titration calorimeter (MicroCal Inc., USA) with the calorimeter cell held at 25° C. All samples were degassed prior to injection or placement into the cell, and the instrument was temperature equilibrated prior to the start of the injections. In all experiments the volume of sample placed in the cell was 1.4 ml and the titrant was injected in 7 μl volumes over 14 s at 3 min intervals, with the total number of injections being 40. The sample contents were stirred at a speed of 310 rpm over the duration of the titration. […] Data were analyzed using the instrument's software incorporated within the Origin 7 software (OriginLab, USA) and in all cases fitted as a single-site interaction using the methodologies outlined in the instrument's manual.
For orientation: In ITC the heat of successive injections is recorded.

Test [2] has as its target T2, Human IGF-I (human, UniProt P05019 49-118).
T2 construct: mature
As to the kind of experiment: ITC, 25 °C, IGF-I titrated into IR485 pre-mixed with 10-fold IGF-1R αCT peptide. How it is done:
as §1

Test [3] addresses T1, Zinc-free porcine insulin. As to the kind of experiment: ITC, 25 °C, ZFP-insulin 50 µM titrated into IR485 5 µM. How it is done:
as §1

The target of test [4] is T2, Human IGF-I. As to the kind of experiment: ITC, 25 °C, IGF-I 100 µM titrated into IR485 10 µM. How it is done:
as §1

In test [5] the target is B2. As to the kind of experiment: ITC, 25 °C, S519N20 50 µM titrated into IR485 5 µM. How it is done:
as §1

In test [6] the target is B2. As to the kind of experiment: ITC, 25 °C, peptide titrated into IR485.
Test [7] concerns the target B2. As to the kind of experiment: ITC, 25 °C, peptide titrated into IR485, single-site fit, mean of three. The protocol: as §1
The target of test [8] is T1, Zinc-free porcine insulin. As to the kind of experiment: ITC, 25 °C, IR αCT peptide 200 µM titrated into ZFP-insulin 20 µM. How it is done: as §1
The target in test [9] is T2, Human IGF-I. As to the kind of experiment: ITC, 25 °C, IGF-1R αCT peptide 200 µM titrated into IGF-I 20 µM. How it is done: as §1
For test [10], the target named is B2. As to the kind of experiment: ITC, 25 °C, S519C16 titrated into IR485 pre-mixed with a 10-fold molar ratio of IR αCT peptide (competitor); apparent Kd; IR485 in the presence of a 10-fold molar ratio of IR αCT peptide. The protocol:
as §1

In test [11] the target is B2. As to the kind of experiment: ITC, 25 °C, S519C16 titrated into IR485 pre-mixed with a 10-fold molar ratio of IR αCT peptide (competitor). How it is done:
as §1

In test [12] the target is B2. As to the kind of experiment: ITC, about 25 °C, peptide titrated into IR485. The protocol: (§2) The insulin mini-receptor IR485 construct was produced and purified as previously described (Lou et al., 2006), omitting the final ion-exchange chromatography step. Isothermal titration calorimetry (ITC) experiments were performed using a VP-ITC isothermal titration calorimeter (MicroCal Inc., USA) with the calorimeter cell held at about 25° C. The ITC cell contained insulin mini-receptor IR485 prepared at about 10 μM concentration in Tris-buffered saline plus azide (TBSA; about 24.8 mM Tris-HCl (pH 8.0), 137 mM NaCl, 2.7 mM KCl, and 0.02% sodium azide), and the syringe contained the peptide prepared at about 60 μM concentration in TBSA. All samples were degassed prior to injection or placement into the cell, and the instrument was temperature equilibrated prior to the start of the injections.
(§3) In all experiments the volume of the insulin mini-receptor IR485 sample placed in the cell was about 1.4 ml and the titrant was injected in about 7 μl volumes over 14 s at 3 min intervals, with the total number of injections being 40. The sample contents were stirred at a speed of about 310 rpm over the duration of the titration. All titrants were first injected into a solution of TBSA alone in order ascertain the heat of dilution, which was then subtracted from the data of interest as appropriate. Each experiment was performed three times, except for that employing the native peptide, which was performed twice. Data were analyzed using the instrument's software incorporated within the Origin 7 software (OriginLab, USA) and in all cases fitted as a single-site interaction using the methodologies outlined in the instrument's manual.

Test [13] concerns the target B2. As to the kind of experiment: ITC, about 25 °C, peptide about 60 µM titrated into IR485 about 10 µM. The protocol:
as §2, §3

Test [14] addresses B2. As to the kind of experiment: ITC, mutant αCT peptides 698-719 titrated into IR485. How it is done:
as §2
In all experiments the volume of the insulin mini-receptor IR485 sample placed in the cell was about 1.4 ml and the titrant was injected in about 7 μl volumes over 14 s at 3 min intervals, with the total number of injections being 40. The sample contents were stirred at a speed of about 310 rpm over the duration of the titration. […] Data were analyzed using the instrument's software incorporated within the Origin 7 software (OriginLab, USA) and in all cases fitted as a single-site interaction using the methodologies outlined in the instrument's manual.

T1 sequence (P01315 88-108 limits assumed, chain 1 of 2): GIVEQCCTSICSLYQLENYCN
T1 sequence (P01315 25-54 limits assumed, chain 2 of 2): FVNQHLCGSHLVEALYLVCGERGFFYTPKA

B1: IR485 pre-complexed with a 10-fold molar ratio of IGF-1R classical αCT peptide (other)
chain: HLYPGEVCPGMDIRNNLTRLHELENCSVIEGHLQILLMFKTRPEDFRDLSFPKLIMITDYLLLFRVYGLESLKDLFPNLTVIRGSRLFFNYALVIFEMVHLKELGLYNLMNITRGSVRIEKNNELCYLATIDWSRILDSVEDNHIVLNKDDNEECGDICPGTAKGKTNCPATVINGQFVERCWTHSHCQKVCPTICKSHGCTAEGLCCHSECLGNCSQPDDPTKCVACRNFYLDGRCVETCPPPYYHFQDWRCVNFSFCQDLHHKCKNSRRQGCHQYVIHNNKCIPECPSGYTMNSSNLLCTPCLGPCPKVCHLLEGEKTIDSVTSAQELRGCTVINGSLIINIRGGNNLAAELEANLGLIEEISGYLKIRRSYALVSLSFFRKLRLIRGETLEIGNYSFYALDNQNLRQLWDWSKHNLTTTQGKLFFHYNPKLCLSEIHKMEEVSGTKGRQERNDIALKTNGDKASCENELLKFSYIRTSFDKISDDDDKEQKLISEEDLN
peptide: VFENFLHNSIFVPRPE
notes: Non-covalent receptor fragment and peptide mixture in the ITC cell; also called IR485 + (10 × IGF1R-αCT)
Take B1: the Kd worked out at 0.0057 µM in [1] and 0.022 µM in the test with Human IGF-I [2].

Turning to B2, the Kd (in [3]; with Human IGF-I [4]) was above 1000 µM in each case.

B3: S519N20 peptide (peptide)
peptide: SLEEEWAQVECEVYGRGCPS
modifications: disulfide 11-18 (inferred)
notes: Synthetic peptide, AusPep, >90% purity; also called Site 2 peptide, the 20 N-terminal residues of S519
B3 showed a Kd in test [5] above 1000 µM.

B4: S519 peptide (peptide)
peptide: SLEEEWAQVECEVYGRGCPSGSLDESFYDWFERQLG
modifications: disulfide 11-18 (inferred)
notes: 36-residue synthetic peptide, Activotec, >85% purity; also called insulin mimetic peptide S519
In the case of B4, in test [6], the “-TΔS^0” value was 5.74 kcal/mol, the Kd is 0.011 µM and the “ΔH^0” value was -16.5 kcal/mol.

B5: IR classical α-chain C-terminal peptide (residues 704-719) (peptide)
peptide: TFEDYLHNVVFVPRPS
notes: Mature IR-A numbering; also called IR αCT; IR-αCT
As to B5, the Kd in [7] was 3.9 µM; in test [8] it was above 1000 µM.

In [7], TFEDYLHNVVAVPRPS (also called IR αCT.714A; IR-αCT.714A) [F714A mutant of the IR classical αCT peptide] displayed a Kd of 6.5 µM.

B6: IGF-1R classical α-chain C-terminal peptide (residues 691-706) (peptide)
peptide: VFENFLHNSIFVPRPE
notes: Mature IGF-1R numbering; also called IGF-1R αCT; IGF1R-αCT
Turning to B6, the Kd with Human IGF-I [9] was above 1000 µM; in [7], 17.6 µM.

B7: S519C16 peptide (peptide)
peptide: GSLDESFYDWFERQLG
notes: Synthetic peptide, AusPep, >90% purity; also called Site 1 peptide, the 16 C-terminal residues of S519
As to B7, the Kd in test [10] stood at 0.016 µM. Also, in [11], the “-TΔS^0” value is -2.63 kcal/mol and the “ΔH^0” value is -7.89 kcal/mol. Also, in test [6], the “-TΔS^0” value amounted to 2.87 kcal/mol, the Kd is 0.0026 µM and the “ΔH^0” value was -14.6 kcal/mol.

B8: N-terminally biotinylated IR αCT peptide 698-719, wild type (peptide)
peptide: Biotin-ESSFRKTFEDYLHNVVFVPRPS
notes: Genscript, >75% purity; also called wt; native peptide
With B8, in test [12], the “TΔS°” value is -3.35 kcal/mol, the “ΔG°” value is -8.01 kcal/mol and the “ΔH°” value was -11.5 kcal/mol. Further, the Kd in [13] was 1.34 µM.

On to Biotin-ESSFYKTFEDYLHNVVFVPRPS [N-terminally biotinylated IR αCT peptide 698-719, R702Y], for which, in test [12], the “TΔS°” value is -2.87 kcal/mol, the “ΔG°” value is -9 kcal/mol and the “ΔH°” value was -12 kcal/mol. Also, the Kd in test [13] was 0.249 µM.

For the molecule Biotin-ESSFRKYFEDYLHNVVFVPRPS [N-terminally biotinylated IR αCT peptide 698-719, T704Y], in test [12], the “TΔS°” value was -2.63 kcal/mol, the “ΔG°” value is -8.37 kcal/mol and the “ΔH°” value was -11 kcal/mol. Besides, the Kd in [13] was 0.74 µM.

Regarding Biotin-ESSFRKWFEDYLHNVVFVPRPS [N-terminally biotinylated IR αCT peptide 698-719, T704W], in [12], the “TΔS°” value was 2.63 kcal/mol, the “ΔG°” value is -9.13 kcal/mol and the “ΔH°” value is -6.21 kcal/mol. In addition, the Kd in test [13] amounted to 0.201 µM.

Biotin-ESSFWKTFEDYLHNVVFVPRPS [N-terminally biotinylated IR αCT peptide 698-719, R702W]: in test [12], the “TΔS°” value was -0.717 kcal/mol, the “ΔG°” value is -8.89 kcal/mol and the “ΔH°” value is -8.37 kcal/mol. Besides, the Kd in [13] worked out at 0.309 µM.

Regarding Biotin-ESSFYKWFEDYLHNVVFVPRPS [N-terminally biotinylated IR αCT peptide 698-719, R702Y/T704W], in test [12], the “TΔS°” value is -1.2 kcal/mol, the “ΔG°” value is -10.6 kcal/mol and the “ΔH°” value is -11.7 kcal/mol. Moreover, the Kd in test [13] is 0.018 µM. Further, in test [14], the “fold increase in affinity against the wild type peptide” value is at most 100 fold.
